System: swine class I promoter (PD1)
Test: Luciferase assay, FRTL-5 cells stably transfected with class I promoter-luciferase chimeras
Format: cell-based
Conditions: 100 U/ml γ-interferon, 40 hours
Source text: The swine PD1 5′-flanking sequence-CAT chimeras (−1100, −203, and −127), as well as two mutants with the CRE site with −107 to −100 bp deleted (−203ΔCRE and −127ΔCRE) were used to create luciferase reporter gene constructs. The inserts were released by restriction enzyme digestion, purified from agarose gel using QIAEX (QIAGEN, Chatsworth, Calif.) and ligated in the NheI-HindIII site of the PGL-2 basic vector (PROMEGA, Madison, Wis.) using a DNA ligation kit from TAKARA biomedicals (TAKARA SHUZO Co). JM109 bacterial competent cells (PROMEGA, Madison, Wis.) were transformed with the ligation reaction and plated in agar plates for 12 h at 37° C. The colonies were picked and screened with minipreps using QIAprep spin plasmid kit (QIAGEN, Chatsworth, Calif.) and restriction enzyme digestion. The plasmids were then purified by CsCl gradient centrifugation.
The PD1-PGL-2 basic constructs and the Class II-PGL-2 basic constructs were stably transfected in the FRTL-5 cells using a Lipofectamine (GIBCO, Life Technologies, Inc.) method. Near confluent cells in 6H medium were cotransfected with 20 μg of plasmid DNA and 2 μg of a pcDNA3neo or a pPUR selection vector (CLONTECH, Palo Alto, Calif.). After 24-48 hours, 400 μg/ml of G418 (GIBCO, Life Technologies, Inc.) or 10 μM of puromycin (SIGMA) were added to the medium. After 3 weeks the antibiotic-resistant colonies were cloned by limiting dilution and screened to determine their interferon sensitivity. At least 5 cell lines of each construct were isolated, each of whose activity was increased by adding 100 U/ml γ interferon to the medium of the cells. The following data (Tables 10-13) were obtained with one clone of each of the class I or class II-luciferase chimera, but were representative of at least three other clones of each.
Luciferase activity was measured using the Luciferase assay system (PROMEGA, Madison, Wis.). Briefly, treated or untreated cells from a 100 mm culture dish were washed with PBS, scraped and collected in microfuge tubes. The pellet was dissolved in 100 μl 1× reporter lysis buffer and incubated at room temperature for 15 minutes. Cells were frozen in dry ice plus ethanol and thawed in water at room temperature. After vortexing for 10 sec, tubes were centrifuged at 12,000×g for 5 min. Twenty μl of the supernatant were mixed with 100 μl of Luciferase assay reagent and immediately placed in a luminometer. Light was measured for a period of 10 sec after a 2 sec delay.
Treatment of cells, maintained either in the presence of TSH or its absence, with 100 U/ml interferon, increased class I and class II promoter activity (Table 10). In this experiment FRTL-5 cells were grown to 80% confluency in 6H medium with TSH then treated with 100 U/ml γ-interferon, 5 mM MMI or both together. Luciferase activity was measured after 40 hours as described. Several points are notable. First, interferon increases both class I and class II promoter activity in the stable transfectants. Second, MMI inhibits both interferon-increased class I and interferon-increased class II promoter activity.

B1: γ-IFN: rat recombinant γ-interferon, 100 U/ml, used to increase MHC class I and class II expression in FRTL-5 cells (protein, UniProt P01581 23-156, looked up)
Interferon gamma: QGTLIESLESLKNYFNSSSMDAMEGKSLLLDIWRNWQKDGNTKILESQIISFYLRLFEVLKDNQAISNNISVIESHLITNFFSNSKAKKDAFMSIAKFEVNNPQIQHKAVNELIRVIHQLSPESSLRKRKRSRC
Luciferase activity +γ-IFN (Vector-LUC Control): 102 ± 6 % Control | Luciferase activity +γ-IFN (p(−127) class I-LUC): 180 ± 19 % Control | Luciferase activity +γ-IFN (p(−127ΔCRE) class I-LUC): 92 ± 10 % Control | Luciferase activity +γ-IFN (p(−203) class I-LUC): 495 ± 30 % Control | Luciferase activity +γ-IFN (p(−203ΔCRE) class I-LUC): 139 ± 16 % Control
